The target in assay [1] is T1, human NPY2 receptor (human, UniProt P49146 1-381).
T1 construct: whole, on cells; also called hNPY2-R; hNPY2R
T1 sequence (looked up): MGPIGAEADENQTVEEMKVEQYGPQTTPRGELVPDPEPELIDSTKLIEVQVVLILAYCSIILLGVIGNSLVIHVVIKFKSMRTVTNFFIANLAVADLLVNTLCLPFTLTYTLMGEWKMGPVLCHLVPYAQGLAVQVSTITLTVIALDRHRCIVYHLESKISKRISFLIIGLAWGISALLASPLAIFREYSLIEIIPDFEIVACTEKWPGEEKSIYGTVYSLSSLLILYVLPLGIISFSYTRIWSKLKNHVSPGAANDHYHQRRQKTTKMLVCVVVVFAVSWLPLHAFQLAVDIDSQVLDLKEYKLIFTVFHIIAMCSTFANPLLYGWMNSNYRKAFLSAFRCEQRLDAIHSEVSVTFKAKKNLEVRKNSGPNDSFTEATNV
Description: RLB, apparent Ki of filtrate after incubation at pH 8.1-8.2 (assumed 10 mg/ml). On the procedure: (§1) The filtration RLB assay was carried out in 96-well plates in a final volume of 100 μl per well. Freeze-dried test peptides were dissolved in 100% dimethyl sulfoxide (DMSO) to stock solutions of 1 mM and serial dilutions were performed in assay buffer (50 mM HEPES, 5 mM MgCl₂, 1 mM CaCl₂), pH 7.4) containing 0.2% ovalbumin. […] Next, 80 μL membranes (HTS066M, ChemiSCREEN™ Human Neuropeptide Y2 Receptor Membrane Preparation, CHEMICON) were added to each well to give a final protein concentration of 0.5 μg/well. The plates were sealed and incubated at room temperature for 2 hours in a plate shaker set at 400 rpm. The incubation was stopped by vacuum filtration onto 0.5% polyethylene amine (PEI) presoaked GF/C filters using a 96-well FilterMate™ harvester (Perkin Elmer) followed by four washes with 300 μl/well ice-cold wash buffer (50 mM HEPES, 500 mM NaCl, pH7.4). Filter plates were then dried for 60 min at room temperature and the bottom of the plates was sealed with backing tape UniFilter-96. Finally, 50 μl/well scintillation counter cocktail (Microscint20, Packard) was added and the radioactivity was counted in the Packard TopCount NXT scintillation counter. IC₅₀ values (the half maximal inhibitory concentration of the agonist) were calculated by nonlinear regression analysis of sigmoidal dose-response curves.
The peptide was (partially) dissolved by shaking the filter unit horizontally at approx. 400 rpm for 2 hours at room temperature. The sample was filtered to remove any insoluble particles.

Assay [2] addresses T1, human NPY2 receptor. Description: RLB, apparent Ki of filtrate after incubation at pH 7.1-7.2 (assumed 10 mg/ml). On the procedure: as §1, with “curves. […]” for “curves.”
In assay [3] the target is T1, human NPY2 receptor. Description: RLB: displacement of 125I-PYY(1-36) from hNPY2R membranes.
Assay [4] has as its target T2, human NPY1 receptor (human, UniProt P25929 1-384).
T2 sequence (looked up): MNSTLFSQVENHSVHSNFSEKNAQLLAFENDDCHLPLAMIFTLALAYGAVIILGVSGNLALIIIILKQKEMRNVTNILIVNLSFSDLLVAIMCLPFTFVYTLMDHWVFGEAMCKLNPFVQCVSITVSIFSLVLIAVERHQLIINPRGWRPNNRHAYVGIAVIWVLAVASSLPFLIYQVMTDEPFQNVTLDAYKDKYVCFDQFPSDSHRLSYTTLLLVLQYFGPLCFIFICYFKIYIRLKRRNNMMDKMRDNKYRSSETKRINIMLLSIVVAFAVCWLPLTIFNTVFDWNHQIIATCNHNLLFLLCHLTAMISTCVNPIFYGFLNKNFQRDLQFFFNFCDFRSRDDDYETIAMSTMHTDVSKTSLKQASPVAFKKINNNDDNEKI
Description: cell-based or functional assay.

The target in assay [5] is T1, human NPY2 receptor. Description: cell-based or functional assay.
The target in assay [6] is T3, human NPY5 receptor (human, UniProt Q15761 1-445).
T3 sequence (looked up): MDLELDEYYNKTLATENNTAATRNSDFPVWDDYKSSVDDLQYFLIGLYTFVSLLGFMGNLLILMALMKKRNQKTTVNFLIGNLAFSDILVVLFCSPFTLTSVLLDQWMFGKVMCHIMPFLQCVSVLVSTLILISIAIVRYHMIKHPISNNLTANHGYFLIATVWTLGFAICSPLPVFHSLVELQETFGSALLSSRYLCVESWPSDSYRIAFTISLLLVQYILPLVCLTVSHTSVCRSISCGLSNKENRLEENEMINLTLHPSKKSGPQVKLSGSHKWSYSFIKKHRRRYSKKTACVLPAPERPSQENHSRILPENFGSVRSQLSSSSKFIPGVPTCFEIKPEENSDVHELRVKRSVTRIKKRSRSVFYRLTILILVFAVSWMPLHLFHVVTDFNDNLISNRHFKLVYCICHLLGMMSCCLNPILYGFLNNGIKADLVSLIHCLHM
Description: cell-based or functional assay.

Assay [7] concerns the target human NPY4 receptor (human, UniProt P50391 1-375). Description: cell-based or functional assay.
Assay [8] addresses T1, human NPY2 receptor. Description: RLB (125I-PYY(1-36) displacement, hNPY2R membranes), peptide from DMSO stock. On the procedure:
as §1, with “curves. […]” for “curves.”

The target of assay [9] is T1, human NPY2 receptor. Description: ratio of apparent Ki, pH 6 filtrate vs pH 7 filtrate. On the procedure:
as §1, with “curves. […]” for “curves.”

The target of assay [10] is T1, human NPY2 receptor. Description: RLB, apparent Ki of filtrate after incubation at pH 6.1-6.2 (assumed 10 mg/ml). The method, then:
as §1, with “curves. […]” for “curves.”

The target of assay [11] is T1, human NPY2 receptor. Description: ratio of apparent Ki, pH 8 filtrate vs pH 7 filtrate. The method, then:
as §1, with “curves. […]” for “curves.”

*1 amine or outer side, *2 acyl side, *3 side chain or, on linkers, in order; H or OH if unused. Side-chain parts run from the residue outwards. The star is where a group is joined. C18 diacid = O=C(O)CCCCCCCCCCCCCCCCC(=O)*; γGlu = O=C(O)[C@H](CCC(=O)[*:2])N[*:1]; Isovaleryl = CC(C)CC(=O)*; Ahx = NCCCCCC(=O)O

We go through 2 molecules from patent US20260015399A1 (Boehringer Ingelheim, published 2026).

human NPY4 receptor, sequence (P50391 whole entry): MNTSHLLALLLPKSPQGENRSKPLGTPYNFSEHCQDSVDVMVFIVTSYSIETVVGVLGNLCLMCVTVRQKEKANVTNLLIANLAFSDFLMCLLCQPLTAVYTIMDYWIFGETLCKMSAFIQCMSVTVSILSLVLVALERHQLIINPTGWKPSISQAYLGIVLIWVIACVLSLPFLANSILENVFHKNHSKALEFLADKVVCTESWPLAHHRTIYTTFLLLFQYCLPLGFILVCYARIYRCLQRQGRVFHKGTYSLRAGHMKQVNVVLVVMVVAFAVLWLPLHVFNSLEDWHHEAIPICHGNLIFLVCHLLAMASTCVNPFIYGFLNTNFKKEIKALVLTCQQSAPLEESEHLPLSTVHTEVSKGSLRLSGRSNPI

B1: Compound 40 (peptide)
peptide: Isovaleryl-APEK([Ahx-γGlu-C18 diacid])PEADASPEEIQRYYIALRHYYNWLTRQRY-NH2
With B1, the Ki in [1] was found to be 3.8 nM; in assay [2], 7.3 nM; in assay [3], 0.67 nM. In addition, the “EC50, HTRF cAMP Gi assay” value was greater than 5000 nM in assay [4], 0.122 nM in [5], greater than 5000 nM in assay [6] and greater than 5000 nM in assay [7].

B2: Compound 176 (peptide)
peptide: Isovaleryl-APEK([Ahx-γGlu-C18 diacid])PEEDATPEEIQRYYVSLRHYYNWLTRQRY-NH2
SMILES: CC[C@H](C)[C@H](NC(=O)[C@H](CCC(=O)O)NC(=O)[C@H](CCC(=O)O)NC(=O)[C@@H]1CCCN1C(=O)[C@@H](NC(=O)[C@H](C)NC(=O)[C@H](CC(=O)O)NC(=O)[C@H](CCC(=O)O)NC(=O)[C@H](CCC(=O)O)NC(=O)[C@@H]1CCCN1C(=O)[C@H](CCCCNC(=O)CCCCCNC(=O)CC[C@H](NC(=O)CCCCCCCCCCCCCCCCC(=O)O)C(=O)O)NC(=O)[C@H](CCC(=O)O)NC(=O)[C@@H]1CCCN1C(=O)[C@H](C)NC(=O)CC(C)C)[C@@H](C)O)C(=O)N[C@@H](CCC(N)=O)C(=O)N[C@@H](CCCNC(=N)N)C(=O)N[C@@H](Cc1ccc(O)cc1)C(=O)N[C@@H](Cc1ccc(O)cc1)C(=O)N[C@H](C(=O)N[C@@H](CO)C(=O)N[C@@H](CC(C)C)C(=O)N[C@@H](CCCNC(=N)N)C(=O)N[C@@H](Cc1c[nH]cn1)C(=O)N[C@@H](Cc1ccc(O)cc1)C(=O)N[C@@H](Cc1ccc(O)cc1)C(=O)N[C@@H](CC(N)=O)C(=O)N[C@@H](Cc1c[nH]c2ccccc12)C(=O)N[C@@H](CC(C)C)C(=O)N[C@H](C(=O)N[C@@H](CCCNC(=N)N)C(=O)N[C@@H](CCC(N)=O)C(=O)N[C@@H](CCCNC(=N)N)C(=O)N[C@@H](Cc1ccc(O)cc1)C(N)=O)[C@@H](C)O)C(C)C
As for B2, the Ki in assay [8] worked out at 8.7 nM; in assay [1] it was 5.7 nM; in assay [2], 4 nM; in [10] it was 3.9 nM; in assay [3] it was 1.48 nM. Further, the “RLB ratio (RLB6/RLB7)” value in assay [9] was 1. Further, the “RLB ratio (RLB8/RLB7)” value in assay [11] was 1.4. Also, the “EC50, HTRF cAMP Gi assay” value is greater than 5000 nM in assay [4], 0.168 nM in assay [5], greater than 5000 nM in assay [6] and greater than 5000 nM in assay [7].
